Data from the nanobody polyreactivity screen of Harvey et al. (2022).

Test: yeast display, Sf9 membrane polyspecificity reagent, FACS + sequencing; frameworks hold sequencing errors
Method in brief: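 Nanobodies from a synthetic yeast display library (Saccharomyces cerevisiae BJ5465), induced 36–48 hours with galactose, were stained 1 hour at 4 °C with 10% biotinylated, detergent-solubilized Sf9 membrane reagent, enriched on streptavidin microbeads, then FACS-sorted. Anti-HA (expression) and streptavidin (reagent binding) fluorescence set low and high (top ~1%) gates. Polyreactivity labels come from the gate of origin. Genes were colony-PCR amplified, MiSeq 2 × 250 sequenced and filtered by CDR length.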

Row | Sequence | polyreactivity (PSR sort gate)
1 | QVQLVESGGGLVQAGGSLRLSCAASGSIFRANAMGWYRQAPGKERELVAAISRRGGNTYYADSVKGRFTISRDNAKNTVYLQMNSLKPEDTAVYYCAADRSEYDYWGQGTQVTVSS | high polyreactivity
2 | QVQLVESGGGLVQAGGSLRLSCAASGGTFYNYAMGWYRQAPGKERELVAAITYSGGITYYADSVKGRFTISRDNAKNTVYLQMNSLKPEDTAVYYCNTDGINSSVVVVDDYWMDYWGQGTQVTVSS | low polyreactivity
3 | QVQLVESGGGLVQAGGSLRLSCAASGRTFLLYAMGWYRQAPGKERELVAAISRGGGSTFYADTVKGRFTLSRDNAKNTVYLQRNSLKPDDTAVYYCAAYGRYYYIYDYCGQGTQVTVSS | high polyreactivity
4 | QVQLVETGGGLVQAGGSLRLSCAASGGILVGYALGWYRQAPGKERELVAAINYSGGSTNYADSVKGRFTISRDNAKNTVYLQMNSLKPEDTAVYYCAARSTARYGYWGQGTQVTVSS | low polyreactivity
5 | QVQRVESVGGLVQAGGSLRLICAASGRIFQVNAIGWYRQAPGKERELVAAITYSGGTTYYADSVKGRFTISRDNAKNTVYLQMNSLKPEDTAVYYCAAEGYGALGDPWQYGYEYWGQGTQVTVSS | low polyreactivity
6 | QVQLVESGGGLVQAGGSLRLSCAASGSTFWVNAMGWYRQAPGKERELVAAISNSGGSTYYADSVKGRFTISRDNAKNTVYLQMNSLKPEDTAVYYCAAAGGVDYDYWGQGTQVTVSS | low polyreactivity
7 | QVHIEDSGGGLLQAGGSLRLSCAATGRTFFYYAMGWYRQAPGKERELVAAISGRGGRTYYADSVKGRFTISRDNAINTVYLQMNSLKPEDTAVYFCGGDAGPLRYDYWGQGTQVTVSS | high polyreactivity
8 | QVQLVESGGGIVQAGGSLRLSCAASGSTFPHNAMGWYRQAPGKERQLVAALSVGGGSTHYADSVKGRFTISRDNAKNTVYLQMNSLKPEDTAVYYCAKDYAYQYSFVTYDYWGQGTQVTVSS | low polyreactivity
9 | QVQLVESGGGLVQAGGTLRLSCAASGSIFTYNAMGWYRQAPGKERELVAAITRSGGRTYYADSVKGRFTISRDNAKNTVYLQMNSLKPEDNAVYYCNTLRVGWGQGTQVTVSS | high polyreactivity
10 | QVQLVESGGGLVQAGGSLRLSCAASGYTVGNNAMGWYRQAPGKERELVARIRTNGGTTYYADSVKGRFTISRDNAKNTVYLQMNSLKPEDTAVYYCNAYRGYEYDYWGQGTQVTVSS | low polyreactivity
11 | QVQLVESGGGLVQAGGSLRLSCAASGFTFNRYAMGWYRQAPGKERELVAAISWSGTSTYYADSVKGRFTISRDNAKNTVYLQMNSLKPEDTAVYYCAARVKGQWNTYDYWGQGTQVTVSS | high polyreactivity
12 | QVQLQQSVGGLVQAGGSLRLSCAASGNIFPTDRMGWYRQAPGKELEFVATISHGGRTNYADSVKGRFTISRDNATNTVYLQMNRLKPEDTAVYFCAVWSLGRWRHYYWGQGSQVTVSS | low polyreactivity
13 | QVQLVESGGGLIQAGGSLRLSCAASGIIFYPYTMGWYRQAPGKERELVAAIRQSGTSTYYADSVKGRFTISRDNAKNTVYLQMNSLKPEDTAVYYCNADDHIYWRKGYDYWGQGTQVTVSS | low polyreactivity
14 | QVQLEESAGGLVQAGGSLRLSCAASGSIFFWNDLGWYRQAPGKERELVAAISWSGGSTSYADSVKGRFTISRDNAKNTVYLQMNSLKPEDTAVYYCAADFYYRTLYGYIGMDYWGQGTQVTVSS | low polyreactivity
15 | QVQLVESGGGLVQAGGSLRLSCAASGFIFRSYAMGWYRQAPGKERELVAAISRSGGSTYYADSVKGRFTISRDNAKNTVYLQMNSLKPEDTAVYYCATDGGRSTARGYGHWGQGTQVTVSS | high polyreactivity
16 | QVQLVESGGGLVQAGGSLRLSCAASGSNFSSNAMGWYRQAPGKERELVAAISRSGVTTYYADSVKGRFTISRDNAKNTVYLQMNSLKPEDTAVYYCAGQPYSRLYGRYRGFQYKYVYWGHGTQVTVSS | low polyreactivity
17 | QVQIVDSGGGLVQAGGSLRLSCAASGRTFNYYAKGWYRQAPGKERQLVAAISKSGGSTYYADSVKGRFTISRDNEKNTVYLQMNSLKPEETAVYYCAALTTHAPHSYNYWGQGTQVTVSS | low polyreactivity
18 | QVQLVESGGGLVQAGGSLRLSCAASGRTLWTNAMGWYRQAPGKEREFVAPITWRGGSTYYADSVKGRFTISRDNAKNTVNLQMNSLKPEDTAVYYCATLIPRKGSRYYHRGYWGQGSQVTVSS | high polyreactivity
19 | QVQLVESGGGLVQAGGSLRLSCAASGSIFGEYTMGWYRQAPGKERELVAAISWNGGITYYADSVKGRFTISRDNAKNTVYLQMNSLKPEDTAVYYCAAETYPWSLFTYYSWGQGSQVTVSS | low polyreactivity
20 | QVQLVESGGGLVQAGGSLRLSCAASGNIFSVYAMGWYRQAPGKERELVAAISSSGGRTYYADSVKGRFTISRENSKNTVYLQMNSLKPEDTAVYYCAARSYTGQFGYWGQGTQVTVSS | high polyreactivity
21 | QVQLVESGGGLVQAGRSHRLSCAASGRTFKPYAMGWYRPAPGKERELVARISGSGGSTYYADSVKGRFTISRDYAKNTVYLQMNSLNPEDIAVYYCATTPYYWFDYWGQGRQVTVSS | low polyreactivity
22 | QVQLVESGGGLVQAGGSLRLSCAASGSIFQKYAMGWYRPAPGKERELVAAISSGGGRTYYADSVKGRFTISRDNAKNTVYLQMNSLKPEDTAVYYCAARGSYTSIFDYWGQGTQVTVSS | high polyreactivity

Row | Sequence | polyreactivity (PSR sort gate)
23 | QVQLVESGGGLVQAGGSLRLTSAASGITFYGYAMGWYRQAPGKETELVAAISRSGSSTYYADSVKGRFTISRYNAKNTVYLQMNSLKPEVTAVYYCAARAWAQWGDYWGQGTQLTVSS | high polyreactivity
24 | QVQLVESGGGVVQAGGSLRLICAASGSTFHSYVMGWYRQAPWKERELVAAITSRGGSTNYADSVKGRFTISRDNAKNTVYLQLNSQKPEDTAVYCCAADGYLGWSYCRYDYWGQGTQVTVSS | low polyreactivity
25 | QVQLVESGGGLVQAGGSLRLSCAASGNIFYRYAMGWYRQAPGKERELVAAISGNSGNTYYADSVKGRFTISRDNAKNSVYLQMNSLKPEDTAVYYCAARPYYSYAGSGGYWGQGTQVTLSS | high polyreactivity
26 | QVQLVESVGGLVQAGGSLRLSCAASGITFRRYAMGWYRQAPGKERELVATIRNSGGGTYYADSVKGRFTISRDNAKNTVYLQMNSLKPEDTAVYYCAAELYFTYYYWGQGTQVTVSS | high polyreactivity
27 | QVQLVESGGGLVQAGGSLRLSCAASGFTFSRYAMGWYRQAPGKERELVAAISLRGGRTYYADSVKGRFTISRDKTKNSVYLQMNSLKPEDTAVYYCNRDYRGPYYYWGQGSQVTVSS | high polyreactivity
28 | QVQLVESGGALVQAGGSLRLSCAASGITFWKYTMGWYRQAPGKERELVASIRIGGSTYYADSVKGRFTISRDNAKNTVYLQMNSLKPEDTAVYYCATDSRLWGQGTQVTVSS | high polyreactivity
29 | QVQLVESGGGLVQAGGSLRISCAASGRTFGSYSMGWYRQAPGNEREEVAAISLSAGSTYYADYVKGRFTISRDNAKNTVYLQMNRLKAEDTAVYYCAAGTKWYSQVYIYFYWGQGTQVTVSS | low polyreactivity
30 | QVQLVESGGGLVQAGGSLRLSCAASGFTFYYYAMGWYRQAPGKERELVAGISKSGGITYYADSVKGRFTISLDNAKNTVYLQMNSLKPEDTAVYYCAAAEWYQFFIYRYTYEYWGQGTQVTVSS | low polyreactivity
31 | QVQLVESGGGLVQAGGSLRLSCAASGRIFRYYAMGWYRQAPGKERELVAAISWSGGSTYYADSVKGRFTISRDNAKNTVYLQMNSLKPEDTAVYYCNAYIYRAVPYDYWGQGTQVTVSS | high polyreactivity
32 | QVQLVESVGGLVQAGGSLRLSCAASGSIFKSYAMGWYRQAPGKERELVAAITYRGGSTYYADSVKGRFTISRDNAKNTVYLQMNSLKPEDTAVYYCAKDQHRYYQVWGDYWGQGTQVTVSS | high polyreactivity
33 | QVQLVESGGVLVQAGGSLRLSCAASGSTFHRSAMGWYRQAPGKERELVATINLNTGSTYADSVKGRFTISRDNAKNTVYLQMNSLKPEDTAVYYCAAYGRWPFTWYNYWGQGTQVTVSS | low polyreactivity
34 | QVQLVESGGGLVQAGGSLRLSCAASGLIFPSYTMGWYRQAPGKERELVAAITFSGDSTNYADSVKGRFTISRDNAKNTVYLQMNSLKPEDTAVYYCAASQVSDTTRFGYWGQGTQVTVSS | low polyreactivity
35 | QVQLVESGGGLVQAGGSLRLSCAASGGIFVFYAMGWYRQAPGKERELVAAIRYGGSSTYYADSVKGRFTISRDNAKNTVYLQMNSLKPEDTAVYYCAAEHYSVYDPIGDYWGQGTQVTVSS | low polyreactivity
36 | QVQLVQSRGGLVQAGGSLRLSCAASGYIFWYYVKGWNRQAPGKERELVASITIGGGRTYYADSVKGRFTISRDFAKNSVYLQMNCMKPEDTAVYYCAAVTTPYNSDFDYWGQGTQVTVSS | low polyreactivity
37 | QVQLVESGGGLVQAGGSLRLSCAASGFIFSYYAMGWYRQAPGKERELVATITSGGSTNYADSVKGRFTISRDNAKNTVYLQMNSLKPEDTAVYYCNALPGVSHTQYDRVGYWGQGTQVTLSS | high polyreactivity
38 | QDQLVESGGGLVQAGGSLRLSCAASGLTFKRNAMGWYRQAPVKERELVAAIRYSTDSTNYADSVKGRFTISRDNAKNTVYLQLNSMNPEDTAVYYCAKDKQDYEYWGQGTQVTVSS | low polyreactivity
39 | QVQLVESGGGLVQAGGSLRLSCAASGSIFVGYAMGWYRQAPGKERELVAAIRSGGSTKYADSVKGRFTISRDNAKNTVYLQMNSLKAEDTAVYYCNVEVHPYYWVDNFHRFPVLHNYWGQGTQVTVSS | low polyreactivity
40 | QVQLVESGGGLVQAGGSLRLSCAASGRIFGSYAMGWYRQAPGKERELVAAISWRGTSTYYADSVKRRFTISRDNAKKTVYLQMNSLKPEDTAVYYCAARGLWPYDYWGQGTQVTVSS | low polyreactivity
41 | QVQLVESGGGLVQAGGSLRLSCAASGFIIAYYAMGWDRQAPGKERELVAAINGGGGSRSYADSVKGRFTISRDNAKNTVYLQMNSLKPEDTAVFYCAADGSDDEENDYWGQGTQVTVSS | high polyreactivity
42 | QVQLVESGGGLVQAGGSLRLSCAASGRTIVAYAMGWYRQAPGKERELVAAISWSTGSTYYADSVKGRFTISRDNAKNTVYLQMNSLKPEDTAVYYCAGLVWAPRDYWGQGTQVTVSS | low polyreactivity
43 | QVQLVESGGGLVQAGGSLRLSCAASGFTSRKNAMGWYRQAPGKERELVAAITQSSGRTYYADSVKGRFTISRDNAKNTVYLQMNSLKPEDTAVYYCAARRGGEDDYWGQGTQVTVSS | low polyreactivity
